Measured values taken from paper PMC4177983.

Target: SF162 soluble Env gp140 trimer (HIV-1 isolate SF162 (clade B))
Experiment: SPR; 1273 RUs of SF162 gp140 trimer amine-coupled on a CM5 chip; dual injection, 3 µM 4E10 Fv flowed 5 minutes before and during 10 nM Fab b12 or 447-52D; HBS-EP+, 25°C

Work on 4E10 Fv yielded a response bound at 3 µM 4E10 Fv of 90 RUs.
